{"source": "patent US20080044425A1", "about": "“POLYPEPTIDES HAVING PHOSPHOLIPASE A2 ACTIVITY” (KYOWA HAKKO KOGYO CO., LTD., priority 2000, published 2008)", "molecules": {"B1": {"name": "human-derived polypeptide of the present invention: novel human cytoplasmic phospholipase A2 polypeptide having the amino acid sequence shown in SEQ ID NO: 1, Flag-tagged, expressed in insect cells (protein, listed as Homo sapiens)", "chain": "MLWALWPRWLADKMLPLLGAVLLQKREKRGPLWRHWRRETYPYYDLQVKVLRATNIRGTDLLSKADCYVQLWLPTASPSPAQTRIVANCSDPEWNETFHYQIHGAVKNVLELTLYDKDILGSDQLSLLLFDLRSLKCGQPHKHTFPLNHQDSQELQVEFVLEKSQVPASEVITNGVLVAHPCLRIQGTLRGDGTAPREEYGSGQLQLAVPGAYEKPQLLPLQPPTEPGLPPTFTFHVNPVLSSRLHVELMELLAAVQSGPSTELEAQTSKLGEGGILLSSLPLGQEEQCSVALGEGQEVALSMKVEMSSGDLDLRLGFDLSDGEQEFLDRRKQVVSKALQQVLGLSEALDSGQVPVVAVLGSGGGTRAMSSLYGSLAGLQELGLLDTVTYLSGVSGSTWCISTLYRDPAWSQVALQGPIERAQVHVCSSKMGALSTERLQYYTQELGVRERSGHSVSLIDLWGLLVEYLLYQEENPAKLSDQQEAVRQGQNPYPIYTSVNVRTNLSGEDFAEWCEFTPYEVGFPKYGAYVPTELFGSELFMGRLLQLQPEPRICYLQGMWGSAFATSLDEIFLKTAGSGLSFLEWYRGSVNITDDCQKPQLHNPSRLRTRLLTPQGPFSQAVLDIFTSRFTSAQSFNFTRGLCLHKDYVAGREFVAWKDTHPDAFPNQLTPMRDCLYLVDGGFAINSPFPLALLPQRAVDLILSFDYSLEAPFEVLKMTEKYCLDRGIPFPSIEVGPEDVEEARECYLFAKAEDPRSPIVLHFPLVNRTFRTHLAPGVERQTAEEKAFGDFVINRPDTPYGMMNFTYEPQDFYRLVALSRYNVLNNVETLKCALQLALDRHQARERAGA", "modifications": "Flag tag"}}, "assay": "Measurement of PLA2 activity in the soluble fraction of insect cells (Sf9) expressing the human-derived polypeptide", "format": "biochemical", "settings": "4 mmol/l calcium chloride, 37° C., 2 hours, control: pVL1393 vector virus, FIG. 10", "method": "The supernatant containing the virus recovered in (2) above (2 ml) was added to 28 ml of 1.5×10^6/ml suspending Sf9 cells, and the cells were cultured at 27° C. for 4 days in the suspending state. The cells were recovered by centrifugation at 800 rpm for 5 minutes and washed with phosphate-buffered saline (PBS). The resulting cells were suspended in a buffer consisting of 25 mmol/l Tris-HCl (pH 7.5), 140 mmol/l sodium chloride, 5 mmol/l potassium chloride, 2 mmol/l EDTA and 1× complete, EDTA-free (Boehringer Mannheim) and disrupted on ice using a sonicator. The extract was centrifuged at 15,000 rpm for 15 minutes, and the supernatant was used for the measurement of PLA2 activity.\nOne hundred μl of a reaction solution [100 mmol/l Tris-HCl (pH 7.5), 4 mmol/l calcium chloride, 1 mg/ml bovine serum albumin (substantially fatty acid-free, Sigma) and 8 μmol/l Triton X-100] containing 1-palmitoyl-2-[1-^14C]arachidonyl-phosphatidylcholine (48 mCi/mmol, Daiichi Kagaku Yakuhin) (2 μmol/l) and the supernatant obtained above was incubated at 37° C. for 2 hours, followed by the addition of Dole reagent (containing 2-propanol, heptane and sulfuric acid at a ratio of 78:20:2) to stop the reaction. To the reaction mixture were further added 0.3 ml of heptane and 0.2 ml of water, and mixing was effected by rotation. […] The amount of the polypeptide was determined using the Bio Rad Protein Assay method. […]", "data": [{"molecule": "B1", "values": [{"measurement": "PLA2 activity that hydrolyzes the ester bond at the sn-2-position in 1-palmitoyl-2-arachidonyl-phosphatidylcholine", "value": "has PLA2 activity"}]}]}
